The text below walks through data of patent publication US11059903B2, “Anti-PSMA antibodies, uses thereof and conjugates thereof” (Polytherics Limited, priority 2016, dated 2021).

Substitutions are numbered along the chain they refer to.

The series is described as follows: Heat stress test, aggregation analysed by SEC. The format is physicochemical. The settings on record: for Ab in aggregated form (%) / Ab in native conformation (%): post stress test: 0.5 mg/mL in PBS, 75° C. for 30 min, SEC % area. The method, then:
Antibody samples (0.5 mg/mL in PBS) were incubated at 75° C. for 30 min followed by incubation in an ice-bath for 5 min prior to being analysed for their extent of aggregation. Analysis of antibody solutions was carried out by Size Exclusion Chromatography (SEC) and by turbidity measurements.
SEC was performed using a TOSOH Bioscience TSK gel Super SW 3000 column. UV absorbance at 280 nm was monitored during an isocratic elution with a 0.2 M Potassium phosphate buffer, pH 6.8 (0.2 M potassium chloride and 15% isopropanol). The elution times and number of peaks indicate whether the sample contains aggregated, degraded or native antibody. The % area under the curve (Abs280) was used to determine the quantity of each species present in the SEC analysis.
On the technique in general: Size exclusion chromatography separates by hydrodynamic size, large species first.

B1: AB-03: Humanised anti-PSMA antibody, heavy chain SEQ ID No 7, light chain SEQ ID No 8 (antibody, V domains shown)
VH: EVQLVQSGAEVKKPGASVKVSCKASGYTFTEYTIHWVRQAPGKGLEWIGNINPNNGGTTYNQKFEDRVTITVDKSTSTAYMELSSLRSEDTAVYYCAGGWTFDYWGQGTTVTVSS
VL: DIQMTQSPSTLSASVGDRVTITCKASQDVGTAVDWYQQKPGQAPKLLIYWASTRHTGVPDRFSGSGSGTDFTLTISRLQPEDFAVYYCQQFTRYPLTFGQGTKVDIK
For B1, the “Ab in aggregated form (%)” value amounted to 64% and the “Ab in native conformation (%)” value came to 36%.

B2: AB-05: Humanised anti-PSMA antibody, heavy chain SEQ ID No 5, light chain SEQ ID No 10 (antibody, V domains shown)
VH: B1 VH with G98A, G99Y, T101L
VL: B1 VL with F91Y, T92N, R93A, P95S
As to B2, the “Ab in aggregated form (%)” value is given as 98% and the “Ab in native conformation (%)” value is 2%.

B3: AB-04: Humanised anti-PSMA antibody, heavy chain SEQ ID No 9, light chain SEQ ID No 8 (antibody, V domains shown)
VH: B1 VH with G99A, F102M
VL: B1 VL
Take B3: the “Ab in aggregated form (%)” value stood at 73% and the “Ab in native conformation (%)” value was determined as 27%.

B4: AB-09: Prior art anti-PSMA antibody, heavy chain SEQ ID No 15, light chain SEQ ID No 16 (antibody, V domains shown)
VH: MELGLRWVLLVALLRGVQCQVQLVESGGGVVQPGRSLRLSCAASGFTFSNYVMHWVRQAPGKGLEWVAIIWYDGSNKYYADSVKGRFTISRDNSKNTLYLQMNSLRAEDTAVYYCAGGYNWNYEYHYYGMDVWGQGTTVTVSS
VL: MRVPAQLLGLLLLCFPGARCDIQMTQSPSSLSASVGDRVTITCRASQGITNYLAWFQQKPGKAPKSLIYAASSLQSGVPSKFSGSGSGTDFSLTISSLQPEDFATYYCQQYNSYPITFGQGTRLEIK
On to B4, for which the “Ab in aggregated form (%)” value is on record as 100% and the “Ab in native conformation (%)” value is recorded as 0%. Where the note is “heat stress test, in words”, the “Stability compared with AB-02 to AB-06 antibodies” value is on record as “less stable”.
